Experiment [1] deals with T1, ErbB-3 receptor-Ig fusion (human, UniProt P21860 20-643).
T1 construct: extracellular domain;range 224-C-terminus; also called ErbB-3-Ig; 3/3 homodimer; not shown: human IgG heavy chain constant region from His224 (hinge) on
Nature of the experiment: displacement of 125I-HRG-β1 177-244 from plate-bound ErbB-3-Ig.

Experiment [2] deals with T2, ErbB-4 receptor-Ig fusion (human, UniProt Q15303 26-651).
T2 construct: extracellular domain;range 224-C-terminus; also called ErbB-4-Ig; not shown: human IgG heavy chain constant region from His224 (hinge) on
T2 sequence: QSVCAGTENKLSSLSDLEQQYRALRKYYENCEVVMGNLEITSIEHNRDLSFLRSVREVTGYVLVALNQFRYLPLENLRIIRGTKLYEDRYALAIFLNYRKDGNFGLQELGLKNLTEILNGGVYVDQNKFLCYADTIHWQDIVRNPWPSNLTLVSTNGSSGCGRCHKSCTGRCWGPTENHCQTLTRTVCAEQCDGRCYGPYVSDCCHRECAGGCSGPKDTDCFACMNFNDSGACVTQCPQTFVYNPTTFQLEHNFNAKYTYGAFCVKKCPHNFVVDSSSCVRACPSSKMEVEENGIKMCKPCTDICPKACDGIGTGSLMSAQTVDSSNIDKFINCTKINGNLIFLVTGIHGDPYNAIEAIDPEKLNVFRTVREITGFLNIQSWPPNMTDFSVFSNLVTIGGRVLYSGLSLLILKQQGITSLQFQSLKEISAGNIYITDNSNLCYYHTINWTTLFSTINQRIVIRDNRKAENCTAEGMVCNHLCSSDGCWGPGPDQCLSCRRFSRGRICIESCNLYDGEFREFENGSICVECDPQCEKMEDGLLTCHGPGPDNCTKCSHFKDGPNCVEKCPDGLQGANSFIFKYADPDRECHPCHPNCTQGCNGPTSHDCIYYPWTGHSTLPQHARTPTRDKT
Kind of experiment: displacement of 125I-HRG-β1 177-244 from plate-bound ErbB-4-Ig.

Experiment [3] addresses T2, ErbB-4 receptor-Ig fusion. Nature of the experiment: phage ELISA; soluble ErbB-4-Ig as competitor.
Procedure: (§1) Microtiter plates (Nunc Maxisorp™ 96-well plates, Inter Med, Denmark) for phage ELISA were prepared as follows. The wells were precoated overnight with 0.5 μg of rabbit anti-human IgG (Fc gamma fragment-specific) antibodies (Jackson Immunoresearch, West Grove, Pa.) in 100 μL 50 mM NaCO₃ (pH 9.6). The wells were blocked for 30 minutes (min) with 200 μL PBS containing 0.1% bovine serum albumin (BSA) and rinsed with wash buffer (PBS containing 0.05% Tween 20™). The wells were then coated with 0.1 μg ErbB-2/3-Ig in binding buffer (PBS, 0.1% BSA, 0.05% Tween 20™) for 1 h, and washed again.
(§2) Serial dilutions of soluble ErbB-2/3-Ig (competitor) and a concentration of phage predetermined to give 60% saturation (without competitor) were added to the wells in 100 μL binding buffer. Following incubation for 2 h at room temperature, plates were washed extensively and treated with a 1:900 dilution of anti-M13 horseradish peroxidase conjugate (Pharmacia, Piscataway, N.J.) for 20 min. The amount of phage binding was determined by assaying horseradish peroxidase activity using o-phenylenediamine dihydrochloride) substrate solution (Sigma Chemical Company, St. Louis, Mo.). EC₅₀ values were calculated as the concentration of soluble ErbB-2/3-Ig required to compete half of the phage off the plate.
Experiment [4] has as its target T1, ErbB-3 receptor-Ig fusion. Nature of the experiment: phage ELISA; soluble ErbB-3-Ig as competitor.
Procedure: as §1, §2
For experiment [5], the target named is T3, ErbB-2/3 receptor-Ig fusion (human, UniProt P04626 23-652; P21860 20-643).
T3 construct: extracellular domain;range 224-C-terminus; Co-expressed in HEK-293; also called ErbB-2/3-Ig; 2/3-heterodimer; not shown: human IgG heavy chain constant region from His224 (hinge) on
Nature of the experiment: phage ELISA; soluble ErbB-2/3-Ig competes phage off plate-bound ErbB-2/3-Ig.

Numbering of substitutions follows the chain as printed. Numbers in names are those of the source.

T1 sequence (P21860 other isoform, or with tags, fused parts or gaps): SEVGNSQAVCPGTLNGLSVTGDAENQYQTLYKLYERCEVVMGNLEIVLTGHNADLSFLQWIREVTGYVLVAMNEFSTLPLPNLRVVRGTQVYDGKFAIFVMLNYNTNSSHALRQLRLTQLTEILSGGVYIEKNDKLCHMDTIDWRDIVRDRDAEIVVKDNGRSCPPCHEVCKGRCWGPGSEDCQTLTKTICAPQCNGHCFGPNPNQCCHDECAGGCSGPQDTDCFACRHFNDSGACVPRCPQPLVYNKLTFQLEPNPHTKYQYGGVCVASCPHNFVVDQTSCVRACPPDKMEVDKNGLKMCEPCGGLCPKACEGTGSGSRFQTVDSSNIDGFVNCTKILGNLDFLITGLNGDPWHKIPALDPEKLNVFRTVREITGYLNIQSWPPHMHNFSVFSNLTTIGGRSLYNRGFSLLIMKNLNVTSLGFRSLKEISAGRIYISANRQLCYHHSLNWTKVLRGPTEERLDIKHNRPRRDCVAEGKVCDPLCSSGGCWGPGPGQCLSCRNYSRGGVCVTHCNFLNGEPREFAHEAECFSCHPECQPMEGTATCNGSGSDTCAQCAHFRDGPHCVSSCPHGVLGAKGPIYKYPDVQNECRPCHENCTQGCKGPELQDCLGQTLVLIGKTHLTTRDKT

In the case of “Trx-HRG-β1 146-244 G194A fusion (soluble) (from UniProt Q6DR98 147-244) (ligand)”, the EC50 in experiment [1] is 1210 nM; in experiment [2], 275 nM.

Take “Trx-HRG-β1 146-244 F216A fusion (soluble) (from UniProt Q6DR98 147-244) (ligand)”: the concentration for a half-maximal effect (EC50) is 2550 nM in experiment [1] and 173 nM in experiment [2]. “Trx-HRG-β1 146-244 K200A fusion (soluble) (from UniProt Q6DR98 147-244) (ligand)”: the 50% effective concentration (EC50) came to 45.4 nM in experiment [1] and 16.9 nM in experiment [2]. The matching figures for “Trx-HRG-β1 146-244 E195A fusion (soluble) (from UniProt Q6DR98 147-244) (ligand)”: 42 nM and 13.2 nM.

With “Trx-HRG-β1 146-244 G218A fusion (soluble) (from UniProt Q6DR98 147-244) (ligand)”, the EC50 in experiment [1] was determined as 668 nM; in experiment [2] it was 608 nM.

Regarding “Trx-HRG-β1 146-244 N192A fusion (soluble) (from UniProt Q6DR98 147-244) (ligand)”, the EC50 in experiment [1] was 1640 nM; in experiment [2], 696 nM. In the same order, the values of “Trx-HRG-β1 146-244 K211A fusion (soluble) (from UniProt Q6DR98 147-244) (ligand)” are 248 nM and 124 nM. The matching figures for “Trx-HRG-β1 146-244 P205A fusion (soluble) (from UniProt Q6DR98 147-244) (ligand)”: 39.5 nM and 34.2 nM. On to “Trx-HRG-β1 146-244 S177A fusion (soluble) (from UniProt Q6DR98 147-244) (ligand)”, for which the figures for the EC50 in experiment [1] and in experiment [2] were 129 nM and 54.6 nM, respectively. With “Trx-HRG-β1 146-244 F189A fusion (soluble) (from UniProt Q6DR98 147-244) (ligand)”, the EC50 in experiment [1] came out at 975 nM; in experiment [2], 565 nM.

Consider “Trx-HRG-β1 146-244 R207A fusion (soluble) (from UniProt Q6DR98 147-244) (ligand)”, for which the values for the EC50 in experiment [1] and in experiment [2] were 245 nM and 24.3 nM, respectively. The matching figures for “Trx-HRG-β1 146-244 L179A fusion (soluble) (from UniProt Q6DR98 147-244) (ligand)”: 394 nM and 51.7 nM. In the same order, the values of “Trx-HRG-β1 146-244 E215A fusion (soluble) (from UniProt Q6DR98 147-244) (ligand)” are 156 nM and 104 nM. The molecule “Trx-HRG-β1 146-244 V199A fusion (soluble) (from UniProt Q6DR98 147-244) (ligand)” showed an EC50 in experiment [2] of 246 nM. As for “Trx-HRG-β1 146-244 Y224A fusion (soluble) (from UniProt Q6DR98 147-244) (ligand)”, the EC50 was 339 nM in experiment [1] and 24.5 nM in experiment [2]. In the same order, the values of “Trx-HRG-β1 146-244 F229A fusion (soluble) (from UniProt Q6DR98 147-244) (ligand)” are 177 nM and 89.9 nM.

Regarding “Trx-HRG-β1 146-244 G193A fusion (soluble) (from UniProt Q6DR98 147-244) (ligand)”, the half-maximal effective concentration (EC50) in experiment [1] came to 26.9 nM; in experiment [2], 76.3 nM. In the same order, the values of “Trx-HRG-β1 146-244 T217A fusion (soluble) (from UniProt Q6DR98 147-244) (ligand)” are 145 nM and 32.7 nM. In the same order, the values of “Trx-HRG-β1 146-244 H178A fusion (soluble) (from UniProt Q6DR98 147-244) (ligand)” are 476 nM and 138 nM.

B1: recombinantly produced HRG-β1 177-244 (soluble) (ligand)
chain: SHLVKCAEKEKTFCVNGGECFMVKDLSNPSRYLCKCPNEFTGDRCQNYVMASFYKHLGIEFMEAEELY
B1: the EC50 in experiment [1] amounted to 9 nM; in experiment [2], 14.8 nM.

B2: HRG-β1 177-244 N192A on phage (ligand)
chain: B1 chain with N16A
notes: not shown: M13 pIII C-terminal fragment (from pIII residue 247), the phage display partner
Take B2: in experiment [3], a half-maximal effect (EC50) was put at 188 nM.

B3: HRG-β1 177-244 S177A on phage (ligand)
chain: B1 chain with S1A
notes: as for B2
In the case of B3, the concentration giving a half-maximal response (EC50) in experiment [4] was 67 nM; in experiment [3], 83 nM.

B4: HRG-β1 177-244 K211A on phage (ligand)
chain: B1 chain with K35A
notes: not shown: M13 pIII fragment from residue 247 to the C-terminus (phage display carrier) and any cloning-site junction
In experiment [3], B4 registered a half-maximal effective concentration (EC50) of 59 nM.

B5: HRG-β1 177-244 E195A on phage (ligand)
chain: B1 chain with E19A
notes: as for B2
In the case of B5, it took 24 nM to reach a half-maximal effect in experiment [3] (EC50).

B6: HRG-β1 177-244 H178A on phage (ligand)
chain: B1 chain with H2A
notes: as for B2
As for B6, the half-maximal effective concentration (EC50) in experiment [3] came to 32 nM.

B7: HRG-β1 177-244 G193A on phage (ligand)
chain: B1 chain with G17A
notes: as for B2
Molecule B7 yielded a concentration for a half-maximal effect (EC50) in experiment [3] of 23 nM.

B8: HRG-β1 177-244 F229A on phage (ligand)
chain: B1 chain with F53A
notes: as for B2
B8: the EC50 in experiment [4] stood at 6 nM. In other words, the single-digit nanomolar range.

B9: HRG-β1 177-244 V199A on phage (ligand)
chain: B1 chain with V23A
notes: as for B4
With B9, the EC50 in experiment [4] is 27 nM; in experiment [3], 47 nM.

B10: HRG-β1 177-244 R207A on phage (ligand)
chain: B1 chain with R31A
notes: as for B4
Regarding B10, the EC50 in experiment [3] was determined as 30 nM.

B11: HRG-β1 177-244 P205A on phage (ligand)
chain: B1 chain with P29A
notes: as for B4
For B11, the figures for the EC50 in experiment [4] and in experiment [3] were 22 nM and 8 nM, respectively.

B12: HRG-β1 177-244 E215A on phage (ligand)
chain: B1 chain with E39A
notes: as for B4
As for B12, the EC50 in experiment [4] came out at 51 nM; in experiment [3] it was 32 nM.

B13: HRG-β1 177-244 G194A on phage (ligand)
chain: B1 chain with G18A
notes: as for B2
With B13, the figures for the concentration giving a half-maximal response (EC50) in experiment [4] and in experiment [3] were 500 nM and 65 nM, respectively.

B14: HRG-β1 177-244 K200A on phage (ligand)
chain: B1 chain with K24A
notes: also called K2OO; not shown: M13 pIII fragment from residue 247 to the C-terminus (phage display carrier) and any cloning-site junction
On to B14, for which the values for the concentration for a half-maximal effect (EC50) in experiment [4] and in experiment [3] were 20 nM and 25 nM, respectively.

B15: HRG-β1 177-244 L179A on phage (ligand)
chain: B1 chain with L3A
notes: as for B2
Take B15: the 50% effective concentration (EC50) in experiment [4] is roughly 1000 nM; in experiment [3], 56 nM.

B16: HRG-β1 177-244 Y224A on phage (ligand)
chain: B1 chain with Y48A
notes: as for B2
With B16, the concentration giving a half-maximal response (EC50) was 865 nM in experiment [4] and 51 nM in experiment [3].

B17: HRG-β1 177-244 T217A on phage (ligand)
chain: B1 chain with T41A
notes: as for B4
For the molecule B17, the concentration for a half-maximal effect (EC50) in experiment [3] was found to be 14.2 nM.

B18: TH-WT: thioredoxin fused at its C-terminus to wild-type HRG-β1 146-244 (ligand)
chain: DDDDKAYVSSESPIRISVSTEGANTSSSTSTSTTGTSHLVKCAEKEKTFCVNGGECFMVKDLSNPSRYLCKCPNEFTGDRCQNYVMASFYKHLGIEFMEAEELY
notes: also called Trx-wild-type HRG-β1; not shown: thioredoxin (Trx) from pTrxFus
In the case of B18, the EC50 in experiment [1] came to 47.6 nM; in experiment [2], 15.4 nM.

B19: HRG4: HRG-β1 147-227 displayed on phage, fused to pIII 247 (ligand, phage M13)
chain: YVSSESPIRISVSTEGANTSSSTSTSTTGTSHLVKCAEKEKTFCVNGGECFMVKDLSNPSRYLCKCPNEFTGDRCQNYVMAGGSGGGSGSGDFDYEKMANANKGAMTENADENALQSDAKGKLDSVATDYGAAIDGFIGDVSGLANGNGATGDFAGSNSQMAQVGDGDNSPLMNNFRQYLPSLPQSVECRPFVFSAGKPYEFSIDCDKINLFRGVFAFLLYVATFMYVFSTFANILRNKES
notes: range 247-C-terminus; Monovalent phage display; also called pHRG4-g3
Molecule B19 displayed an EC50 in experiment [5] of 38 nM. This lies in the double-digit nanomolar range.

These data come from US20060183194A1 (Genentech, published 2006).
